Results: publication doi:10.1101/2022.05.21.492920

Molecular target: SARS-CoV-2 S (Acro Biosystems), unlabelled (SARS-CoV-2) (UniProt P0DTC2)
Assay: SPR; Biacore, CM5 chip; S covalently immobilised at pH 4.0 (about 8500 RU); ERα, ACE2 or NRP1 injected at 1.56 to 200 nM; global fit to a single site binding model

Substance	Kd [nM]
ERα-full length (InVitrogen), analyte in SPR (from UniProt P03372 1-595) (receptor)	9.7
recombinant NRP1 (Acro Biosystems), analyte in SPR (from UniProt O14786 22-856) (natural protein)	89.4
